This is an account of results in publication PMC12016518.

This data set deals with T1, VPA1365-His (Vibrio parahaemolyticus RIMD2210633) (UniProt Q87GF1).
T1 sequence: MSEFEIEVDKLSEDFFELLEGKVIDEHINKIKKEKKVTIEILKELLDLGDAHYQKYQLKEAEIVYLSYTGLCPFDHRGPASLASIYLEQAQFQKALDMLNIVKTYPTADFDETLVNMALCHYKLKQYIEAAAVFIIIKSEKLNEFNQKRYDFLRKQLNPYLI
Nature of the data set: EMSA. The note with it: EMSA: 30 nM 5'-FAM probe, 20 µL with 4 µL 5x buffer (10 mM NaCl, 0.1 mM DTT, 0.1 mM EDTA, 10 mM Tris, pH 7.4; unclear if 5x or final), 25°C, 0.5 h, 6% PAGE. In general terms: Mobility shift assays separate free from complexed probe on a gel.

Consider “CGCTCTATAATGCTGACCCTTTTATCAATACTGTACTTATTTCCACAACAAAAAAGCGTACAGTTATTTACTTTTTTACCTTTAACTTGCTGTGAAAATAATATCGTCGACCTGCAGGCA (double strand) [mshA promoter]”, for which the binding entry is listed as “binds”. Under “GCGCATAGCTGTTATAAGAATCCTCAATTCATTTCAATTAATGAGTATTCAGTCAATTAATAGAGCGATTTACTTCATAAAACCATTTTATTTTTATGGACTTAGCTCAAGAAATGACAGCATTATTAACTAATTTTAATAATTTGAGGAATGCATCAATAACTATTTCATATAAACACGATTTACTGTTGACTAAGTTTTATAAATATCGATGATCAGCAAGTTAAACTGAACGAAGTTTTATTCATTTGAAAGCGCAAGAACATGACTATCGTCGACCTGCAGGCA (double strand) [scrG promoter (PscrG)]” stands “binds”. Under “TGCCTGCAGGTCGACGATCACAAGCAACAAAATTCATATTACTTCAACTAACTCAGTAAGTTGTAAGTAATTCATCATTAAAAAGGGCCACTAGGCCCTTTCTTTTTATCCATTAAAAAATAGCATTACTCGCAAAACTCTGCATACGATATGCAACTTTCTACCAAAGAGTTTTACCTCACTCGAGACCCCATCTCTTCCCCATTTTCAACCTTTATGAAGTCTCCATAATCCTTCGCTAATGCAAGGGCATTATTTATTTCATTAAGAAGGAAAG (double strand) [pilA promoter]” stands “binds”.
